Results as given in the supplement of paper PMC9170038.

Test system: MS2 coat protein
Test: apparent KD of MS2 coat protein; designed switch direction (-1 OFF switch, 1 ON switch): -1; higher = weaker reporter binding
Procedure, shortened: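 Designed RNA switches with common flanks were transcribed on Illumina chips by stalled E. coli RNA polymerase and titrated with SNAP-549-labelled MS2 coat protein, from 0.7 or 1.5 nM doubling to 3 µM, in Tris-HCl pH 7.5 buffer with KCl, MgCl2, BSA, DTT, tRNA and Tween-20. Steps lasted 0.8–1.5 h (lowest) to 10–20 min (highest). Titrations ran without input, with 200 uM small-molecule ligand, or with an oligonucleotide input. Normalised cluster fluorescence was curve-fitted, and apparent KD is the per-design median over clusters.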

[1] = Eterna round: R95, input ligand: FMN 200 uM
[2] = Eterna round: R95, input ligand: microRNA oligo, concentration not stated
[3] = Eterna round: R95, input ligand: none
[4] = input ligand: microRNA oligo, concentration not stated

## UAUGGUUAAGUCAGGAUAUACGUGCAGUUUUCUGGGUAGAAGGGACAUGAGGAUCACCCAUGUAUGGUAGUGUU [Ex4 #49] (Eterna round: R97, puzzle: Brourd's mod of Exclusion 4)
Input ligand: FMN 200 uM
  apparent KD of MS2 coat protein: 188 nM
Input ligand: none
  apparent KD of MS2 coat protein: 149 nM

## GAUCAUGCAGGAUAUACAGUAUCCAUGAAAACAUGGAUCAAACAUGAGGAUCACCCAUGUAGAAGGGCAUGAUC [Omei Ex2 A23] (Eterna round: R97, puzzle: Exclusion 2)
Input ligand: FMN 200 uM
  apparent KD of MS2 coat protein: 19.1 nM
Input ligand: none
  apparent KD of MS2 coat protein: 17.9 nM

## UUUCGGCGGACCGUGGCUUUUUGCUCGUCUUAUGCUUCGACAUGAGGAUCACCCAUGUGGUGGUGGUCCGUUGUUGU [Grok-var2-12 mod JAL] (puzzle: Sensor v3, turn-off variant 2)
[1]
  apparent KD of MS2 coat protein: 29.9 nM
[2]
  apparent KD of MS2 coat protein: 20.3 nM
[3]
  apparent KD of MS2 coat protein: 48.9 nM

## CAUGAUUGGCGAGGAUAUUGACCUAGUUGGCGACGAGAAGGCGCCUGUCACAUGAGGAUCACCCAUGUGAAUCUGGUGAAAGAG [Ex NG1 #90] (Eterna round: R96, puzzle: Exclusion NG 1)
Input ligand: FMN 200 uM
  apparent KD of MS2 coat protein: 23.9 nM
[4]
  apparent KD of MS2 coat protein: 16.1 nM
Input ligand: none
  apparent KD of MS2 coat protein: 22.8 nM

## CAAUUGGGAGGAUAUACAUGAGGAUCACCCAUGUCGAUCCCAGGUAAGUUAAUACUUCGUAGAAGGCCUAUCUC [Eternabot (L2) Solution 16] (Eterna round: R97, puzzle: Exclusion 3)
Input ligand: FMN 200 uM
  apparent KD of MS2 coat protein: 20.6 nM
Input ligand: none
  apparent KD of MS2 coat protein: 17.6 nM

## GCAGCAACUCUAACUAACUAAACAUGAGGAUCACCCAUGUCUCAGGAUAUGGUCUGGAUUACAGGCCAGAAGGGAGAAAGCUGC [Eli exng3 - 039] (Eterna round: R96, puzzle: Exclusion NG 3)
Input ligand: FMN 200 uM
  apparent KD of MS2 coat protein: 12.6 nM
[4]
  apparent KD of MS2 coat protein: 10.9 nM
Input ligand: none
  apparent KD of MS2 coat protein: 14.5 nM

## CCUCAGUAAGGAUAUCAGCUUAGUAGGUUGGUAAUGAGAGCUGAGAAGGUACAUGAGGAUCACCCAUGUUAGUU [JL Zatite mod 10] (puzzle: Exclusion 4)
[2]
  apparent KD of MS2 coat protein: 28.8 nM

## GAGAAACAUGAGGAUCACCCAUGUAAGGAUAUGCUGAAAACAACGGAUAAAACGUGCAGCAGAAGGUACAAAGG [Mat - Mod of my Eli Mod D41] (puzzle: Exclusion 1)
[1]
  apparent KD of MS2 coat protein: 76.5 nM
[2]
  apparent KD of MS2 coat protein: 72.1 nM
[3]
  apparent KD of MS2 coat protein: 72.4 nM

## GACCCUGCCUAGGAUAUGCAUCUGUCAGUCAGGGCAGAAGGAGGCACAUGAGGAUCACCCAUGUGACCCGGCGU [EX6 C.3] (Eterna round: R97, puzzle: Exclusion 6)
Input ligand: FMN 200 uM
  apparent KD of MS2 coat protein: 14.6 nM
Input ligand: none
  apparent KD of MS2 coat protein: 14.5 nM

## UGUUUGUCAGGAUAUGCUAGUGCUAGUGAAAGCUAGUGCUAGUAGAAGGGACAUGAGGAUCACCCAUGUGAACG [-27.1, -27 kcal, A 26%, 2bis-(ca)2] (Eterna round: R97, puzzle: Exclusion 4)
Input ligand: FMN 200 uM
  apparent KD of MS2 coat protein: 117 nM
Input ligand: none
  apparent KD of MS2 coat protein: 54.1 nM

## CCAAGCUUAUUCAUUAACCACAUGAGGAUCACCCAUGUAUAGGCAAUUAUGACUGGCCCAUCUGGUGCUCGUCUUAU [Sensor-V1 #30] (Eterna round: R97, puzzle: Sensor, turn-off variant 1)
Input ligand: FMN 200 uM
  apparent KD of MS2 coat protein: 17 nM
Input ligand: none
  apparent KD of MS2 coat protein: 15.9 nM

## AAUGAUUGACGAGGAUAUUGUGGUAGAUCACGACGAGAAGGCGUCUGUCACAUGAGGAUCACCCAUGUGAGCUUUGUGGAUAGA [Ex NG1 #73] (Eterna round: R96, puzzle: Exclusion NG 1)
Input ligand: FMN 200 uM
  apparent KD of MS2 coat protein: 51.6 nM
[4]
  apparent KD of MS2 coat protein: 37.4 nM
Input ligand: none
  apparent KD of MS2 coat protein: 72.2 nM

## UUGAUUAGAAAGGAUAUCGGAUACUUGAGAGUCCGAGAAGGUUUUACAUGAGGAUCACCCAUGUGGCAUCCUCG [Eternabot (L1) Solution 99] (Eterna round: R97, puzzle: Exclusion 6)
Input ligand: FMN 200 uM
  apparent KD of MS2 coat protein: 476 nM
Input ligand: none
  apparent KD of MS2 coat protein: 805 nM

## ACUGGGAGAGGAUAUACAUGAGGAUCACCCAUGUGAAAUUAUAGUGAGGAAAUGAAAAGUAGAAGGCUCUUAGA [Mod of Mat 14 - Jieux - Exclusion 3] (Eterna round: R97, puzzle: Exclusion 3)
Input ligand: FMN 200 uM
  apparent KD of MS2 coat protein: 151 nM
Input ligand: none
  apparent KD of MS2 coat protein: 68.4 nM

## CCAAGCUUUUUCAAUAACAACAUGAGGAUCACCCAUGUUUAAGCUAUUACUUUUGGGCUCUUUAGUGCUAGUCUUAU [JR_STOV1_Sub038] (Eterna round: R97, puzzle: Sensor, turn-off variant 1)
Input ligand: FMN 200 uM
  apparent KD of MS2 coat protein: 18 nM
Input ligand: none
  apparent KD of MS2 coat protein: 18.2 nM

## GGCAAACAUGAGGAUCACCCAUGUAAGGAUAUUAGGCGAUCGUCGAAAGACGAUAGCCUGAGAAGGUGCAUGCC [Eli x1 4.15] (Eterna round: R97, puzzle: Exclusion 1)
Input ligand: FMN 200 uM
  apparent KD of MS2 coat protein: 38.8 nM
Input ligand: none
  apparent KD of MS2 coat protein: 22.4 nM

## CAUUAUUAUCGAGGAUAUCCUAUUGAAAUUCUGGGAGAAGGCGGACUCAACAUGAGGAUCACCCAUGUGGGACGGAUGCUGGGA [salish99_exng1_r04_604] (Eterna round: R96, puzzle: Exclusion NG 1)
Input ligand: FMN 200 uM
  apparent KD of MS2 coat protein: 18 nM
[4]
  apparent KD of MS2 coat protein: 20.9 nM
Input ligand: none
  apparent KD of MS2 coat protein: 21 nM

## GUCUAGAGAGGAUAUAUUUACACUGUACGUCGGAUGAUUGCACUUGAGGAUCACCCAAGUAGAAGGCUCGAGGG [EX2 #33] (Eterna round: R97, puzzle: Exclusion 2)
Input ligand: FMN 200 uM
  apparent KD of MS2 coat protein: 130 nM
Input ligand: none
  apparent KD of MS2 coat protein: 112 nM

## ACACAAGCCCUUUGCUCGUUUUAAUACAGCGGGCUCUCCACAUGAGGAUCACCCAUGUAGGCCUUGUUCCAAGGCCG [Maerarce] (puzzle: Sensor v3, turn-off variant 2)
[1]
  apparent KD of MS2 coat protein: 22.6 nM
[2]
  apparent KD of MS2 coat protein: 22.3 nM
[3]
  apparent KD of MS2 coat protein: 21.8 nM

## CCCGUCGAUGUAGGAUAUGCCCGGGUCUCCCGGGCAGAAGGACAUGAGGAUCACCCAUGUUCAUGAGCAUCAGCCAUGAAUGGG [Double but mutated MS2] (Eterna round: R96, puzzle: Exclusion NG 1)
Input ligand: FMN 200 uM
  apparent KD of MS2 coat protein: 12.8 nM
[4]
  apparent KD of MS2 coat protein: 12.7 nM
Input ligand: none
  apparent KD of MS2 coat protein: 20.2 nM

## AAACCUAUAGGAUAUACAUGAGGAUCACCCAUGUUGCGAUUUUUUAGGUAACAGAUCCGUAGAAGGGUAGGUCA [Reinesce] (puzzle: Exclusion 3)
[2]
  apparent KD of MS2 coat protein: 38.1 nM

## GGCCCUAAGGUCAGAUCCACAAGCUUUUUGCUCGUUUUAACAUGAGGAUCACCCAUGUCUAGUGGAUUUGAUCCUCA [Sensor v3, turn-off variant 2 (MOD of Indiso v.5)] (puzzle: Sensor v3, turn-off variant 2)
[1]
  apparent KD of MS2 coat protein: 36.2 nM
[2]
  apparent KD of MS2 coat protein: 14.5 nM
[3]
  apparent KD of MS2 coat protein: 41.3 nM

## GUUUACAAGCUAAGAUCCUACAUGAGGAUCACCCAUGUGGUCCGGUGACGUGAGUCACCGGACUUAGCUCGUCUUGU [salish99_S_TOV1_R5_001] (Eterna round: R97, puzzle: Sensor, turn-off variant 1)
Input ligand: FMN 200 uM
  apparent KD of MS2 coat protein: 86.8 nM
Input ligand: none
  apparent KD of MS2 coat protein: 90.4 nM

## AACAUGGCAGAGGAUAUAGGACGCUGGCAUAAACUAGAAGGCUGCACAUGAGGAUCACCCAUGUGUUCCAAAAC [Atquisuson] (Eterna round: R97, puzzle: Exclusion 6)
Input ligand: FMN 200 uM
  apparent KD of MS2 coat protein: 38.6 nM
Input ligand: none
  apparent KD of MS2 coat protein: 22.6 nM

## AAUCUACAUGUAGGAUAUGCGUGGCGAAGCUAUGCAGAAGGACAUGAGGAUCACCCAUGUUUUAGCGUCUGCGUACAGAUGCGA [Mat - Exclusion NG 1 - Mod of JL - D99] (Eterna round: R96, puzzle: Exclusion NG 1)
Input ligand: FMN 200 uM
  apparent KD of MS2 coat protein: 269 nM
[4]
  apparent KD of MS2 coat protein: 24.4 nM
Input ligand: none
  apparent KD of MS2 coat protein: 27.2 nM

## AGCUGUGGCCAAGGAUAUCCAACCUUAAAUACCGACGUAUAGUCGGACAUGAGGAUCACCCAUGUGGAGAAGGUGGUCUCAGCA [Eli eng2 - 042] (Eterna round: R96, puzzle: Exclusion NG 2)
Input ligand: FMN 200 uM
  apparent KD of MS2 coat protein: 52.2 nM
[4]
  apparent KD of MS2 coat protein: 33.7 nM
Input ligand: none
  apparent KD of MS2 coat protein: 30.1 nM

## GAAGAAGAGAGAAUAGAAAACAUGAGGAUCACCCAUGUGAGAAGAUGAGGGUGUAAUAGGCUUUUGGCUCGUCUUAU (puzzle: Sensor v3, turn-off variant 1)
[1]
  apparent KD of MS2 coat protein: 37.9 nM
[2]
  apparent KD of MS2 coat protein: 89.7 nM
[3]
  apparent KD of MS2 coat protein: 47.2 nM

## CCCGCAGGUUUUUUGCUCGACAUGAGGAUCACCCAUGUUGUAUGGGUUGUGUGUGUGUGGUGCAUAUAUAUGGUCCU [-25.6, -47.7 kcal, A 16%] (Eterna round: R97, puzzle: Sensor, turn-off variant 1)
Input ligand: FMN 200 uM
  apparent KD of MS2 coat protein: 427 nM
Input ligand: none
  apparent KD of MS2 coat protein: 655 nM

## CUAGAUCUUCGGAUCUAGGACAUGAGGAUCACCCAUGUCACGAGCAGAUCCUCAUGCAAGCUUUUUGCUCGUCUUAU [Sensor v3 - Turn-off variant 1 - 36] (puzzle: Sensor v3, turn-off variant 1)
[1]
  apparent KD of MS2 coat protein: 133 nM
[2]
  apparent KD of MS2 coat protein: 17.4 nM
[3]
  apparent KD of MS2 coat protein: 70.1 nM

## UUAAUUAAUUUAUUAGAUCCUCACAUGAGGAUCACCCAUGUGCAGGAUAUCAGCUCGAUUAGAGCUGAGAAGGGCACUAUAAAU [ExNG3/10-B1] (Eterna round: R96, puzzle: Exclusion NG 3)
Input ligand: FMN 200 uM
  apparent KD of MS2 coat protein: 65 nM
[4]
  apparent KD of MS2 coat protein: 56.4 nM
Input ligand: none
  apparent KD of MS2 coat protein: 62.2 nM

## CCUUAUCCACAGGAUAUGCUCAUCUAAUGAUGAGCAGAAGGGUGGACAUGAGGAUCACCCAUGUUUAUCAAUGG [Omei Ex6 D3] (Eterna round: R97, puzzle: Exclusion 6)
Input ligand: FMN 200 uM
  apparent KD of MS2 coat protein: 675 nM
Input ligand: none
  apparent KD of MS2 coat protein: 1040 nM

## ACUAGAUGAGGAUAUGCAUGUUUUCAUGUUCUUCUAGAUUAACAUGAGGAUCACCCAUGUAGAAGGCGUCUUUA [Exclusion 2 - 32] (puzzle: Exclusion 2)
[2]
  apparent KD of MS2 coat protein: 18.9 nM

## CCUCUACAUGAGGAUCACCCAUGUGAGGAUAUCCUGCGAGGAUCAAAAGAUCCUCGUGGGAGAAGGCAUAUGCA [Omei Ex1 A5] (Eterna round: R97, puzzle: Exclusion 1)
Input ligand: FMN 200 uM
  apparent KD of MS2 coat protein: 22.2 nM
Input ligand: none
  apparent KD of MS2 coat protein: 21 nM
